Reference: patent publication US20250145690A1 (US Dept. of Health and Human Services, published 2025)

How the values were obtained:
Assay in all cases: bead flow cytometry, AUC minus CD4
[1] = target: SARS-CoV-2 spike receptor binding domain (RBD), recombinant (SARS-CoV-2, UniProt P0DTC2 319-541)
[2] = target: SARS-CoV-2 spike N-terminal domain (NTD), recombinant (SARS-CoV-2, UniProt P0DTC2 14-305)
[3] = target: T1, SARS-CoV-2 spike S2 subunit, recombinant (SARS-CoV-2, UniProt P0DTC2 686-1213)
T1 construct: domain: S2 subunit

[4] = target: T2, HCoV-229E spike protein (Sino Biological 40605-V08B) (HCoV-229E, UniProt P15423 16-1115)
T2 sequence: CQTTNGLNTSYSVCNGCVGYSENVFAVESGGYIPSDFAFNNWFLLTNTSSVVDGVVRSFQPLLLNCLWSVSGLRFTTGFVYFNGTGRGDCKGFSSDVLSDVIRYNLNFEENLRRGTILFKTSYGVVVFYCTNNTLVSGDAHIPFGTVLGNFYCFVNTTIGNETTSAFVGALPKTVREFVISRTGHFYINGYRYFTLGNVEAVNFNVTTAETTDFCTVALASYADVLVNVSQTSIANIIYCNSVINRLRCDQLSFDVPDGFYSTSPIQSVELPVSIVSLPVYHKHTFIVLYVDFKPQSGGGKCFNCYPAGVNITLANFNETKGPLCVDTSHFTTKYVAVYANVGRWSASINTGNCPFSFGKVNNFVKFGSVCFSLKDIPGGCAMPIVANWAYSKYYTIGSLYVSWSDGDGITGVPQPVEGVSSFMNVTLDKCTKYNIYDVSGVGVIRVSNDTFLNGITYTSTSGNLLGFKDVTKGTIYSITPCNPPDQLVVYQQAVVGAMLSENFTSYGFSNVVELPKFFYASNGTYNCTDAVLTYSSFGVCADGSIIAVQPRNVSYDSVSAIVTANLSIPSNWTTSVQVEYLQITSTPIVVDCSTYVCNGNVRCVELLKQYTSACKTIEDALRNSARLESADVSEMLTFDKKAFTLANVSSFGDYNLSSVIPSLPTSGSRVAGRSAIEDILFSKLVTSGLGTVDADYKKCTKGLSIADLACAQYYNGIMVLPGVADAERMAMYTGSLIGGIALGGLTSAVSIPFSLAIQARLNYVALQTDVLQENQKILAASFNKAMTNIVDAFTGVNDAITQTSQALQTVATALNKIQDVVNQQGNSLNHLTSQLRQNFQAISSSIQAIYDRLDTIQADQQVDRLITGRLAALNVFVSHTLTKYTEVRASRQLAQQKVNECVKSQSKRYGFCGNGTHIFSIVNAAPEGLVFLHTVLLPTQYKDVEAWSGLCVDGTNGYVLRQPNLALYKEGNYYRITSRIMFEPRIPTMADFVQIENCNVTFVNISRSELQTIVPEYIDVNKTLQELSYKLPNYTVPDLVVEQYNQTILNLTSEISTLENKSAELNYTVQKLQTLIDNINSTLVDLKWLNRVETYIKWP

[5] = target: T3, HCoV-NL63 spike protein (Sino Biological 40604-V08B) (HCoV-NL63, UniProt Q6Q1S2 19-1296)
T3 sequence: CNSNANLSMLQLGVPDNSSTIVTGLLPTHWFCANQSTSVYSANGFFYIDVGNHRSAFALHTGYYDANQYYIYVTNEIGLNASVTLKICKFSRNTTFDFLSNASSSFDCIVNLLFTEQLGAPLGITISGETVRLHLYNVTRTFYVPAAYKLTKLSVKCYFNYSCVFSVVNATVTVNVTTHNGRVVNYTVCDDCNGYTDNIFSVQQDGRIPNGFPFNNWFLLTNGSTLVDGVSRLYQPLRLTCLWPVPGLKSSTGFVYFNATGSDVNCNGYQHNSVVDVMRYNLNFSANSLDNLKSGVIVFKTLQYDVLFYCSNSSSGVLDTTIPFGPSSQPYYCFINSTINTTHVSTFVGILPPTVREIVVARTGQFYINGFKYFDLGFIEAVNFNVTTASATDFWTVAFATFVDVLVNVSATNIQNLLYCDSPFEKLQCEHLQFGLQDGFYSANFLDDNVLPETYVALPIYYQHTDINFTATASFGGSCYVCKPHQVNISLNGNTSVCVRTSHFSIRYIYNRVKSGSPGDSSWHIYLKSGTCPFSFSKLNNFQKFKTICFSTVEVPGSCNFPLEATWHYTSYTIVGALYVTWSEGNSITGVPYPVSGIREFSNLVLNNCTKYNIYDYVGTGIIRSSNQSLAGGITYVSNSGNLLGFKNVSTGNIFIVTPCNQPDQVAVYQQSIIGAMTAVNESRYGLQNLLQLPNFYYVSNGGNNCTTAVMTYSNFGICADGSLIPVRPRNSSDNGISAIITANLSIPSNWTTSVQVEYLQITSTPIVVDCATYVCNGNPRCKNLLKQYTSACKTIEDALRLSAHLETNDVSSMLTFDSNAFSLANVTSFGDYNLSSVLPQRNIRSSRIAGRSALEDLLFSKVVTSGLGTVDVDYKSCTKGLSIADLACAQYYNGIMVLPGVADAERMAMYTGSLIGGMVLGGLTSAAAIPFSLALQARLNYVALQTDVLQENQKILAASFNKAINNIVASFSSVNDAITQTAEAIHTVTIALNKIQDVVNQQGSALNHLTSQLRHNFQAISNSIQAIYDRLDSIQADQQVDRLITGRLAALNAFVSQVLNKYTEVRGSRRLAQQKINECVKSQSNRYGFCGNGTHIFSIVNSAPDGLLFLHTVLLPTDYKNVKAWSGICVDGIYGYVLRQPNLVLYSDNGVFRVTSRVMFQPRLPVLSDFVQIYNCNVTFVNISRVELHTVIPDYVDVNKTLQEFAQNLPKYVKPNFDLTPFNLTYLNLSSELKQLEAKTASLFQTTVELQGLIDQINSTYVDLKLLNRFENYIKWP

MERS-CoV spike protein = target: T4, MERS-CoV spike protein (MERS-CoV, UniProt K9N5Q8 18-1291)
T4 sequence: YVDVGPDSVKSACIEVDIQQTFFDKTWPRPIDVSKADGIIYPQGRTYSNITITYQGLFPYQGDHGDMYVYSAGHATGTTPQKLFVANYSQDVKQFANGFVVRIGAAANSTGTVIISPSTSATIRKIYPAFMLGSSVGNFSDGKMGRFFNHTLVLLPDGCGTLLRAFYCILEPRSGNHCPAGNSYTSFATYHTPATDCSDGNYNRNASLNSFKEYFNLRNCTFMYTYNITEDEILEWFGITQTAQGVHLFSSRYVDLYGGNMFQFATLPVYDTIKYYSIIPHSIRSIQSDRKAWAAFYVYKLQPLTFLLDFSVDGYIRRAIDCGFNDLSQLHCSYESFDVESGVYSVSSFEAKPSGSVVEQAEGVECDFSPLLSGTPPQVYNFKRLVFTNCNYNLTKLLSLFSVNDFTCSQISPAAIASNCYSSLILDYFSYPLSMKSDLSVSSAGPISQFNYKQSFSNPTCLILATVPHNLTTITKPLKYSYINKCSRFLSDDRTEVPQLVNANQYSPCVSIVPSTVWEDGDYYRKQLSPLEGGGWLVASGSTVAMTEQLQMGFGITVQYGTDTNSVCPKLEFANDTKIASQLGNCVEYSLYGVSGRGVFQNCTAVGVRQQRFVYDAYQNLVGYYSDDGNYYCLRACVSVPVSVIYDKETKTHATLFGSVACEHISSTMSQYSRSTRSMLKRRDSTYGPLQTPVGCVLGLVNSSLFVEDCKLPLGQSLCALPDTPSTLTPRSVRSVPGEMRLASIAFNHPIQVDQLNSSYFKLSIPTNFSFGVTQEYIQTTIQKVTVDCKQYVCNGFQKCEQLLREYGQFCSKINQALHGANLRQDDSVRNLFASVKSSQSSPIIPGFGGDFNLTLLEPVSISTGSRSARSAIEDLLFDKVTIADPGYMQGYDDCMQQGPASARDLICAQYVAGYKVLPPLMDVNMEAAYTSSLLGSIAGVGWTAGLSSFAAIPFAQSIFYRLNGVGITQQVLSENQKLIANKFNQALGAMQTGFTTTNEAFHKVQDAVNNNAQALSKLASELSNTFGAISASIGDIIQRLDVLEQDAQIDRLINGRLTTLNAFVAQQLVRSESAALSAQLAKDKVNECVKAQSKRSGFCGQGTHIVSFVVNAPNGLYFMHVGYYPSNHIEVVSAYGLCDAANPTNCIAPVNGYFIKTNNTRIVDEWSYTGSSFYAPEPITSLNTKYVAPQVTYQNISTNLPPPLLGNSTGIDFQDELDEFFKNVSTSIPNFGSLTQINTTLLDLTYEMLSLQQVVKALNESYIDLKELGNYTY

Measured: binding result

B1: COV77-02 (antibody, V domains shown)
VH: QVQLVESGGGVVQPGRSLRLSCAASGFTFSDHGMHWVRQAPGKGLQWVALIWYDGSNMFYRDSVKGRFTISRDNSKNTVYLEMSSLRAEDTALYYCARGTDVWSGLSLDALDVWGQGTMVTVSP
VL: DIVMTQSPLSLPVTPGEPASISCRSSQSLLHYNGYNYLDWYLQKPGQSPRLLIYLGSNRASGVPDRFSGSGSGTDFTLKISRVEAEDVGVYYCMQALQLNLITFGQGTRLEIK
not listed: MERS-CoV spike protein
no binding (tested: 200 µg/mL): all other assays above

B2: COV93-04 (antibody, V domains shown)
VH: QLQLQESGSGLVKPSQTLSLTCVVSGDSISSGGYSWSWIRQQPGKALEWIGYIYHSGVTNYNPSLKSRVTISVDRSTNQFSLKLSSVTAADTAVYYCARDGKYNWFDPWGQGILVTVSS
VL: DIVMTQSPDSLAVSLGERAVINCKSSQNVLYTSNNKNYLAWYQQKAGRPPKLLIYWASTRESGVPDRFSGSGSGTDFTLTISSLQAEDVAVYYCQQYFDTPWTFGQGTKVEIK
not listed: MERS-CoV spike protein
no binding (tested: 200 µg/mL): all other assays above

B3: COV89-28 (antibody, V domains shown)
VH: EVQLVESGGGLVQPGRSLRLSCAASGFTFDDYAMHWVRQAPGKGLEWVSSISWNSGSIVYADSVTGRCTITRDNAKNSLYLQMNSLRPEDTALYYCAKGYSSSPVVYYMDVWGKGTTVTVSS
VL: DIQMTQSPSSVSASVGDRVTITCRASQGIAGWFAWYQQKPGKAPKLLIYATSSLQRGVPSRFSGSGSATHFTLTITSLQPEDFATYYCQQANIFGPGTKVDIK
not listed: MERS-CoV spike protein
no binding (tested: 200 µg/mL): all other assays above

B4: COV57-01 (antibody, V domains shown)
VH: QVQLVESGGGVVQPGRSLRLSCTVSGFTFNNYGMHWVRQAPGKGLEWLAVISYEGSKKFYADSLEGRFSISRDSSKNTLYLQMNSLTIEDTAVYFCAKRNSIFWFGEGRKDAFDVWGQGTRVIVSS
VL: DIQLTQSPSSLSASVGDRVTITCRASQTVDNYLNWYQQLPGKAPKLLIHTASTLQSGVPSRFSATSSGTDFTLTISGLQPDDSATYFCQQSYSVPLTFGGGTKVEIKV
no binding (tested: 200 µg/mL): MERS-CoV spike protein | [5]

B5: COV49-42 (antibody, V domains shown)
VH: QVHLVQSGAEVKNPGVSVKVSCKASGYTFTTSGITWVRQAPGQGLEWMGWISTYNGNTETAQTFQGRVTMTTDTSTSTAYMELRRLRSDDTAVYYCARVQSVATSSNYFFDYWGQGTRVTVSS
VL: DIQMTQSPSSLSASVGDRVTITCRASQTIDRFLNWYQQKPGKAPKLLIYAASRLQSGVPSRFSGSGSGTTYTLTISSLQPEDFATYFCQQSYSDPRALTFGGGTKVEIK
not listed: MERS-CoV spike protein
no binding (tested: 200 µg/mL): all other assays above
